Results taken from article PMC9482650, “Quantitative fragmentomics allow affinity mapping of interactomes” (Nature Communications, 2022).

Experiments:
Assay in all cases: holdup assay
Parameters in all cases: key: below the threshold = too weak to quantify, mostly under pKd 3.1 to 4
[1] = molecular target: T1, LNX2_3, Q8N448
T1 sequence (Q8N448 463-564, limits assumed, looked up): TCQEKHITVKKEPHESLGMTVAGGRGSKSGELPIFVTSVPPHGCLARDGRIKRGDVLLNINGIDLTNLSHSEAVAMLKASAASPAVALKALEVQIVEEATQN

[2] = molecular target: T2, RAPGEF6, Q8TEU7
T2 sequence (Q8TEU7 525-625, limits assumed, looked up): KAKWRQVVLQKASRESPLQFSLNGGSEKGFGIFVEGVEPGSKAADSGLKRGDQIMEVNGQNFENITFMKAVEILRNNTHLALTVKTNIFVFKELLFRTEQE

[3] = molecular target: PTPN3, P26045
Sequence of PTPN3, P26045 (P26045 505-587): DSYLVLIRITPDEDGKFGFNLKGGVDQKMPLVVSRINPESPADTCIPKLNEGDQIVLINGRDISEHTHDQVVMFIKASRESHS

[4] = molecular target: Inadl_8, Q8NI35
Sequence of Inadl_8, Q8NI35 (Q8NI35 1425-1530): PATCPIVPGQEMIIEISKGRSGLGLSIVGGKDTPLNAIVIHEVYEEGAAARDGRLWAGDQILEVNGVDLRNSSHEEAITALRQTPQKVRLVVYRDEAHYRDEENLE

[5] = molecular target: Inadl_4, Q8NI35
Sequence of Inadl_4, Q8NI35 (Q8NI35 547-651): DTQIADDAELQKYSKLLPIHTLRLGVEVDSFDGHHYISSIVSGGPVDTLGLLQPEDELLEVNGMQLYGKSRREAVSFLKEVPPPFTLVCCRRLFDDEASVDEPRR

[6] = molecular target: T3, ARHGAP21, Q5T5U3
T3 sequence (Q5T5U3 45-169, limits assumed, looked up): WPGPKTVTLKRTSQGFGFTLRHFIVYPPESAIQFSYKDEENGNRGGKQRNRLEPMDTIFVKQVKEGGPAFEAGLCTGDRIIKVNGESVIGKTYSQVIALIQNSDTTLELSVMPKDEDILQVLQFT

[7] = molecular target: MAGI2_4, Q86UL8
Sequence of MAGI2_4, Q86UL8 (Q86UL8 772-865): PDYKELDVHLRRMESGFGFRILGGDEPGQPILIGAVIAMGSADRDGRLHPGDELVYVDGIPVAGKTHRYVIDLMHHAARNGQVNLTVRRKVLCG

[8] = molecular target: T4, FRMPD1, Q5SYB0
T4 sequence (Q5SYB0 52-145, limits assumed, looked up): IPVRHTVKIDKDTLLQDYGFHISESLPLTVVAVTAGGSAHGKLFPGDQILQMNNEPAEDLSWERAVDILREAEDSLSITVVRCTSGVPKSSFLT

[9] = molecular target: PARD3_3, Q8TEW0
Sequence of PARD3_3, Q8TEW0 (Q8TEW0 582-685): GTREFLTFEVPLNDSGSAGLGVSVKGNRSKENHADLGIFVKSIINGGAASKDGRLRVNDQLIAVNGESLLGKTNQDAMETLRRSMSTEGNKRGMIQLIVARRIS

[10] = molecular target: AHNAK1, Q09666
[11] = molecular target: NHERF4_1, Q86UT5-2
Sequence of NHERF4_1, Q86UT5-2 (Q86UT5 other isoform, or with tags, fused parts or gaps): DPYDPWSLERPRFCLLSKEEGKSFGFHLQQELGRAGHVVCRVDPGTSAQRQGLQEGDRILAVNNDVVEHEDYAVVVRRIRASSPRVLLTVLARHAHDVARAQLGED

[12] = molecular target: NHERF4_2, Q86UT5
Sequence of NHERF4_2, Q86UT5 (Q86UT5 220-308): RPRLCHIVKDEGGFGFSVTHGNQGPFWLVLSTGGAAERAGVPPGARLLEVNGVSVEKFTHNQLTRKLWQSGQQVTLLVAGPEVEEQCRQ

[13] = molecular target: Inadl_2, Q8NI35
Sequence of Inadl_2, Q8NI35 (Q8NI35 238-335): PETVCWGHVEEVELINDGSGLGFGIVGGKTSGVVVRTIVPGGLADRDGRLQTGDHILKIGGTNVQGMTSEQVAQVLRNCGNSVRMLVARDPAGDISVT

[14] = molecular target: T5, APBA3_1, O96018
T5 sequence (O96018 389-490, limits assumed, looked up): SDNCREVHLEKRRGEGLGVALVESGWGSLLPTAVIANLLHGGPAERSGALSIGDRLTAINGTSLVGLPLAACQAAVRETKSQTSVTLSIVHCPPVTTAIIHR

[15] = molecular target: LDB3, O75112
Sequence of LDB3, O75112 (O75112 1-94): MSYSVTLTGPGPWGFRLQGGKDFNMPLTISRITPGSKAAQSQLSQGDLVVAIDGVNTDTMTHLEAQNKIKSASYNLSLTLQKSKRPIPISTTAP

[16] = molecular target: GRID2IP_1, A4D2P6
Sequence of GRID2IP_1, A4D2P6 (A4D2P6 1-87): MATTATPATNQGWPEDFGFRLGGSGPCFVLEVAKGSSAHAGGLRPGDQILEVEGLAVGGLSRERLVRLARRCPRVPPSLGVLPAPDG

[17] = molecular target: MAGI2_3, Q86UL8
Sequence of MAGI2_3, Q86UL8 (Q86UL8 600-682): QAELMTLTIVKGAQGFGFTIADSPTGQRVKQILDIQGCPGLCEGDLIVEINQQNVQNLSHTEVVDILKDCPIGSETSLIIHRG

[18] = molecular target: T6, LRRC7, Q96NW7
T6 sequence (Q96NW7 1440-1537, limits assumed, looked up): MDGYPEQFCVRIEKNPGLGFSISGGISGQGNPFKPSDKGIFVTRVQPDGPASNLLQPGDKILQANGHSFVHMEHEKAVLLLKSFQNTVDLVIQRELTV

[19] = molecular target: MAGI3_2, Q5TCQ9
Sequence of MAGI3_2, Q5TCQ9 (Q5TCQ9 398-503): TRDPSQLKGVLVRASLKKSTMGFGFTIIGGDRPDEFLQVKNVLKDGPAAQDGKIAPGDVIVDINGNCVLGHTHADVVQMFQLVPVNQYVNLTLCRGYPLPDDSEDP

[20] = molecular target: T7, APBA1_1, Q02410
T7 sequence (Q02410 651-752, limits assumed, looked up): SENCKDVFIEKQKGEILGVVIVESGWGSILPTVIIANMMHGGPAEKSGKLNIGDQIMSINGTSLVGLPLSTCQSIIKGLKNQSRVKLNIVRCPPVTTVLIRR

[21] = molecular target: DLG2_2, Q15700
Sequence of DLG2_2, Q15700 (Q15700 189-283): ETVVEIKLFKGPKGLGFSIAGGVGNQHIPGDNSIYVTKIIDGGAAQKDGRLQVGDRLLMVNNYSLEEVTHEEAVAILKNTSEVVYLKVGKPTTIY

[22] = molecular target: FRMPD2_1, Q68DX3
Sequence of FRMPD2_1, Q68DX3 (Q68DX3 770-861): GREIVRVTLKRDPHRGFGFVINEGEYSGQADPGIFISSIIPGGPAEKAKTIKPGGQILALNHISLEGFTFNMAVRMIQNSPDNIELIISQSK

[23] = molecular target: T8, DLG3_3, Q92796
T8 sequence (Q92796 374-475, limits assumed, looked up): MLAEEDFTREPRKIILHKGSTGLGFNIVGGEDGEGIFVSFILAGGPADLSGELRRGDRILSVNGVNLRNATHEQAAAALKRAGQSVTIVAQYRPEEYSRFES

[24] = molecular target: T9, SHANK1, Q9Y566
T9 sequence (Q9Y566 658-767, limits assumed, looked up): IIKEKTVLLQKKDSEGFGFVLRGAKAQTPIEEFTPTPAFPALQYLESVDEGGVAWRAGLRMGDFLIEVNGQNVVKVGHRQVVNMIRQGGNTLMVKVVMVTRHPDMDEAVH

[25] = molecular target: T10, TJP3_3, O95049
T10 sequence (O95049 375-456, limits assumed, looked up): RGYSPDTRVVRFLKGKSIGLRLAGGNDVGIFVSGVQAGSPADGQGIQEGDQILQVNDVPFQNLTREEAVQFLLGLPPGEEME

[26] = molecular target: T11, LIN7C, Q9NUP9
T11 sequence (Q9NUP9 88-185, limits assumed, looked up): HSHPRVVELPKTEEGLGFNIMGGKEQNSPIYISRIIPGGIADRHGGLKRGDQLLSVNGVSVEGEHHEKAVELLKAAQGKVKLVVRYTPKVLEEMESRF

[27] = molecular target: PDLIM1, O00151
Sequence of PDLIM1, O00151 (O00151 1-87): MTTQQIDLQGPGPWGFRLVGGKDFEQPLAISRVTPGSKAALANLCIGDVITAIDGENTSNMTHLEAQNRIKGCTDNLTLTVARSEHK

[28] = plain residues with an end cap or a label only (N-terminal biotin on a linker: ado-ado)
[29] = plain residues with an end cap or a label only (N-terminal biotin on a linker: (peg)3)

YLEPVLSSEL [ATP2A2, P16615;P16615-3]
pKd [1, 28]: below the threshold | pKd [2, 28]: below the threshold | pKd [3, 28]: 4.93 | pKd [4, 28]: below the threshold | pKd [5, 28]: below the threshold | pKd [6, 28]: below the threshold | pKd [7, 28]: below the threshold | pKd [8, 28]: below the threshold | pKd [9, 28]: below the threshold | pKd [10, 28]: below the threshold | pKd [11, 28]: 4.39 | pKd [12, 28]: below the threshold | pKd [13, 28]: below the threshold | pKd [14, 28]: below the threshold | pKd [15, 28]: below the threshold | pKd [16, 28]: below the threshold | pKd [17, 28]: below the threshold | pKd [18, 28]: below the threshold | pKd [19, 28]: below the threshold | pKd [20, 28]: below the threshold | pKd [21, 28]: below the threshold | pKd [22, 28]: below the threshold | pKd [23, 28]: below the threshold | pKd [24, 28]: 4.67 | pKd [25, 28]: below the threshold

KSGKQTMLVV [TRIM29, Q14134;Q14134-2]
pKd [1, 28]: below the threshold | pKd [2, 28]: below the threshold | pKd [26, 28]: below the threshold | pKd [6, 28]: 4.14 | pKd [8, 28]: below the threshold | pKd [9, 28]: below the threshold | pKd [10, 28]: below the threshold | pKd [12, 28]: below the threshold | pKd [13, 28]: below the threshold | pKd [14, 28]: below the threshold | pKd [15, 28]: below the threshold | pKd [16, 28]: below the threshold | pKd [17, 28]: below the threshold | pKd [18, 28]: below the threshold | pKd [20, 28]: below the threshold | pKd [27, 28]: below the threshold | pKd [25, 28]: below the threshold

LPAHHNATRL [SLC34A1, Q06495;Q06495-1]
pKd [1, 28]: below the threshold | pKd [2, 28]: below the threshold | pKd [3, 28]: 4 | pKd [5, 28]: below the threshold | pKd [26, 28]: below the threshold | pKd [6, 28]: 3.99 | pKd [7, 28]: below the threshold | pKd [8, 28]: below the threshold | pKd [9, 28]: below the threshold | pKd [10, 28]: below the threshold | pKd [11, 28]: 4.01 | pKd [12, 28]: below the threshold | pKd [13, 28]: below the threshold | pKd [14, 28]: below the threshold | pKd [15, 28]: below the threshold | pKd [16, 28]: below the threshold | pKd [17, 28]: below the threshold | pKd [18, 28]: below the threshold | pKd [20, 28]: below the threshold | pKd [21, 28]: below the threshold | pKd [22, 28]: below the threshold | pKd [23, 28]: below the threshold | pKd [24, 28]: 5.39 | pKd [27, 28]: below the threshold | pKd [25, 28]: below the threshold

VYPNAKVELV [PDLIM4_iso2, P50479;P50479-1]
pKd [1, 28]: below the threshold | pKd [2, 28]: below the threshold | pKd [4, 28]: below the threshold | pKd [5, 28]: below the threshold | pKd [26, 28]: below the threshold | pKd [8, 28]: below the threshold | pKd [9, 28]: below the threshold | pKd [10, 28]: below the threshold | pKd [11, 28]: 3.98 | pKd [12, 28]: below the threshold | pKd [13, 28]: below the threshold | pKd [14, 28]: below the threshold | pKd [15, 28]: below the threshold | pKd [16, 28]: below the threshold | pKd [17, 28]: below the threshold | pKd [18, 28]: below the threshold | pKd [19, 28]: below the threshold | pKd [20, 28]: below the threshold | pKd [21, 28]: below the threshold | pKd [22, 28]: below the threshold | pKd [23, 28]: below the threshold | pKd [24, 28]: below the threshold | pKd [27, 28]: below the threshold | pKd [25, 28]: below the threshold

NLNSSEGVPDLLV [SARS-CoV-E, P59637]
pKd [1, 29]: below the threshold | pKd [2, 29]: below the threshold | pKd [3, 29]: below the threshold | pKd [4, 29]: 3.96 | pKd [5, 29]: below the threshold | pKd [26, 29]: below the threshold | pKd [6, 29]: 3.88 | pKd [7, 29]: below the threshold | pKd [8, 29]: below the threshold | pKd [9, 29]: 4.27 | pKd [10, 29]: below the threshold | pKd [11, 29]: below the threshold | pKd [12, 29]: below the threshold | pKd [13, 29]: below the threshold | pKd [14, 29]: below the threshold | pKd [15, 29]: below the threshold | pKd [16, 29]: below the threshold | pKd [17, 29]: below the threshold | pKd [18, 29]: below the threshold | pKd [19, 29]: below the threshold | pKd [20, 29]: below the threshold | pKd [21, 29]: below the threshold | pKd [22, 29]: below the threshold | pKd [23, 29]: below the threshold | pKd [24, 29]: below the threshold | pKd [27, 29]: below the threshold | pKd [25, 29]: below the threshold
